Measurements reported in US20130115279A1 (IMMUNOCELLULAR THERAPEUTICS, published 2013).

B1: CD133 peptide FITNNTSSV (SEQ ID NO:13) (peptide)
peptide: FITNNTSSV
notes: synthetic nine-residue peptide of human CD133 (ProImmune)
B2: CD133 peptide SQLNSNPEL (SEQ ID NO:18) (peptide)
peptide: SQLNSNPEL
notes: as for B1
B3: CD133 peptide SSELESLKV (SEQ ID NO:2) (peptide)
peptide: SSELESLKV
notes: as for B1
B4: CD133 peptide ILAQYNTTK (SEQ ID NO:5) (peptide)
peptide: ILAQYNTTK
notes: as for B1
B5: CD133 peptide YLQWIEFSI (SEQ ID NO:11) (peptide)
peptide: YLQWIEFSI
notes: as for B1
B6: CD133 peptide GLLERVTRI (SEQ ID NO:20) (peptide)
peptide: GLLERVTRI
notes: as for B1
B7: CD133 peptide NLFWFGIGK (SEQ ID NO:9) (peptide)
peptide: NLFWFGIGK
notes: as for B1
B8: CD133 peptide NLLSFAYDL (SEQ ID NO:12) (peptide)
peptide: NLLSFAYDL
notes: as for B1
B9: CD133 peptide YLSGKLFNK (SEQ ID NO:6) (peptide)
peptide: YLSGKLFNK
notes: as for B1
B10: CD133 peptide FLLPALIFA (SEQ ID NO:21) (peptide)
peptide: FLLPALIFA
notes: as for B1
B11: CD133 peptide LVLGSLLLL (SEQ ID NO:17) (peptide)
peptide: LVLGSLLLL
notes: as for B1
B12: CD133 peptide AVDVFLCSY (SEQ ID NO:1) (peptide)
peptide: AVDVFLCSY
notes: as for B1
B13: CD133 peptide KLFNKSKMK (SEQ ID NO:4) (peptide)
peptide: KLFNKSKMK
notes: as for B1
B14: CD133 peptide VLDEIKSMA (SEQ ID NO:10) (peptide)
peptide: VLDEIKSMA
notes: as for B1
B15: CD133 peptide IIDPLNLFW (SEQ ID NO:3) (peptide)
peptide: IIDPLNLFW
notes: as for B1
B16: CD133 peptide LSSSLTSVK (SEQ ID NO:8) (peptide)
peptide: LSSSLTSVK
notes: as for B1
B17: CD133 peptide SLDFAQNFI (SEQ ID NO:15) (peptide)
peptide: SLDFAQNFI
notes: as for B1
B18: CD133 peptide RVLDTPYLL (SEQ ID NO:14) (peptide)
peptide: RVLDTPYLL
notes: as for B1
B19: CD133 peptide ILCCVLGLL (SEQ ID NO:19) (peptide)
peptide: ILCCVLGLL
notes: as for B1
B20: CD133 peptide RTRIKRSRK (SEQ ID NO:7) (peptide)
peptide: RTRIKRSRK
notes: as for B1
B21: CD133 peptide ELVHIFLYV (SEQ ID NO:16) (peptide)
peptide: ELVHIFLYV
notes: as for B1

Legend:
[1] = target: T1, HLA-A*0201 (human); experiment: REVEAL off rate analysis of peptide-MHC pentamers, 37 C, 0, 2 and 24 h
T1 construct: Class I MHC molecule of the ProImmune REVEAL assay; also called HLA-A2
Description: (§1) The pentamers were subjected to incubation and analysis at 37° C. to determine the stability of peptide-MHC complexes. Off-rates of the complexes were measured by REVEAL™ off rate analysis (ProImmune Ltd., Oxford, UK) after 0, 2, and 24 hours of incubation at 37° C.

[2] = target: T1, HLA-A*0201; experiment: REVEAL MHC binding assay, incorporation into MHC relative to positive control peptide
[3] = target: T2, HLA-A*0101 (human); experiment: REVEAL off rate analysis of peptide-MHC pentamers, 37 C, 0, 2 and 24 h
T2 construct: Class I MHC molecule of the ProImmune REVEAL assay; also called HLA-A1
Description: as §1

[4] = target: T2, HLA-A*0101; experiment: REVEAL MHC binding assay, incorporation into MHC relative to positive control peptide
[5] = target: T3, HLA-A*0301 (human); experiment: REVEAL off rate analysis of peptide-MHC pentamers, 37 C, 0, 2 and 24 h
T3 construct: Class I MHC molecule of the ProImmune REVEAL assay; also called HLA-A3
Description: as §1

[6] = target: T3, HLA-A*0301; experiment: REVEAL MHC binding assay, incorporation into MHC relative to positive control peptide
[7] = target: T1, HLA-A*0201; experiment: REVEAL off rate analysis of peptide-MHC pentamers, 37 C, 0, 2 and 24 h; * 24 h interval too short for an accurate value
Description: as §1

[8] = target: T3, HLA-A*0301; experiment: as above
Description: as §1

Row | Binder | t1/2 [1] [h] | % Positive Control [2] [%] | other results
1 | B1 | 20 | 107 | –
2 | B2 | 2.37 | 123 | –
3 | B3 | – | – | t1/2 [3]: 0.46 h; % Positive Control [4]: 74.1%
4 | B4 | – | – | t1/2 [5]: 2.07 h; % Positive Control [6]: 46.6%
5 | B5 | – | 113 | t1/2 [7]: 83 h
6 | B6 | – | 131 | t1/2 [7]: 74.3 h
7 | B7 | – | – | t1/2 [5]: 3.35 h; % Positive Control [6]: 53.1%
8 | B8 | 1.83 | 180 | –
9 | B9 | – | – | % Positive Control [6]: 46.9%
10 | B10 | – | 93.6 | t1/2 [7]: > 120 h
11 | B11 | 8.25 | 102 | –
12 | B12 | – | – | t1/2 [3]: 20.7 h; % Positive Control [4]: 58.6%
13 | B13 | – | – | % Positive Control [6]: 80.8%; t1/2 [8]: 27.8 h
14 | B14 | 1.43 | 309 | –
15 | B15 | – | – | t1/2 [3]: 0.35 h; % Positive Control [4]: 91.5%
16 | B16 | – | – | t1/2 [5]: 1.8 h; % Positive Control [6]: 52.5%
17 | B17 | 15.5 | 115 | –
18 | B18 | 3.51 | 165 | –
19 | B19 | 5.63 | 163 | –
20 | B20 | – | – | t1/2 [5]: 23.9 h; % Positive Control [6]: 87.3%
21 | B21 | 6.86 | 156 | –
